Assay results from US20170160291.

B1: recombinant protease C1S (protein)
chain: EPTMYGEILSPNYPQAYPSEVEKSWDIEVPEGYGIHLYFTHLDIELSENCAYDSVQIISGDTEEGRLCGQRSSNNPHSPIVEEFQVPYNKLQVIFKSDFSNEERFTGFAAYYVATDINECTDFVDVPCSHFCNNFIGGYFCSCPPEYFLHDDMKNCGVNCSGDVFTALIGEIASPNYPKPYPENSRCEYQIRLEKGFQVVVTLRREDFDVEAADSAGNCLDSLVFVAGDRQFGPYCGHGFPGPLNIETKSNALDIIFQTDLTGQKKGWKLRYHGDPMPCPKEDTPNSVWEPAKAKYVFRDVVQITCLDGFEVVEGRVGATSFYSTCQSNGKWSNSKLKCQPVDCGIPESIENGKVEDPESTLFGSVIRYTCEEPYYYMENGGGGEYHCAGNGSWVNEVLGPELPKCVPVCGVPREPFEEKQRIIGGSDADIKNFPWQVFFDNPWAGGALINEYWVLTAAHVVEGNREPTMYVGSTSVQTSRLAKSKMLTPEHVFIHPGWKLLEVPEGRTNFDNDIALVRLKDPVKMGPTVSPICLPGTSSDYNLMDGDLGLISGWGRTEKRDRAVRLKAARLPVAPLRKCKEVKVEKPTADAEAYVFTPNMICAGGEKGMDSCKGDSGGAFAVQDPNDKTKFYAAGLVSWGPQCGTYGLYTRVKNYVDWIMKTMQENSTPRED
B2: recombinant protease MASP1 (protein)
chain: HTVELNNMFGQIQSPGYPDSYPSDSEVTWNITVPDGFRIKLYFMHFNLESSYLCEYDYVKVETEDQVLATFCGRETTDTEQTPGQEVVLSPGSFMSITFRSDFSNEERFTGFDAHYMAVDVDECKEREDEELSCDHYCHNYIGGYYCSCRFGYILHTDNRTCRVECSDNLFTQRTGVITSPDFPNPYPKSSECLYTIELEEGFMVNLQFEDIFDIEDHPEVPCPYDYIKIKVGPKVLGPFCGEKAPEPISTQSHSVLILFHSDNSGENRGWRLSYRAAGNECPELQPPVHGKIEPSQAKYFFKDQVLVSCDTGYKVLKDNVEMDTFQIECLKDGTWSNKIPTCKIVDCRAPGELEHGLITFSTRNNLTTYKSEIKYSCQEPYYKMLNNNTGIYTCSAQGVWMNKVLGRSLPTCLPVCGLPKFSRKLMARIFNGRPAQKGTTPWIAMLSHLNGQPFCGGSLLGSSWIVTAAHCLHQSLDPEDPTLRDSDLLSPSDFKIILGKHWRLRSDENEQHLGVKHTTLHPQYDPNTFENDVALVELLESPVLNAFVMPICLPEGPQQEGAMVIVSGWGKQFLQRFPETLMEIEIPIVDHSTCQKAYAPLKKKVTRDMICAGEKEGGKDACAGDSGGPMVTLNRERGQWYLVGTVSWGDDCGKKDRYGVYSYIHHNKDWIQRVTGVRN
B3: recombinant protease C1R (protein)
chain: SIPIPQKLFGEVTSPLFPKPYPNNFETTTVITVPTGYRVKLVFQQFDLEPSEGCFYDYVKISADKKSLGRFCGQLGSPLGNPPGKKEFMSQGNKMLLTFHTDFSNEENGTIMFYKGFLAYYQAVDLDECASRSKSGEEDPQPQCQHLCHNYVGGYFCSCRPGYELQEDTHSCQAECSSELYTEASGYISSLEYPRSYPPDLRCNYSIRVERGLTLHLKFLEPFDIDDHQQVHCPYDQLQIYANGKNIGEFCGKQRPPDLDTSSNAVDLLFFTDESGDSRGWKLRYTTEIIKCPQPKTLDEFTIIQNLQPQYQFRDYFIATCKQGYQLIEGNQVLHSFTAVCQDDGTWHRAMPRCKIKDCGQPRNLPNGDFRYTTTMGVNTYKARIQYYCHEPYYKMQTRAGSRESEQGVYTCTAQGIWKNEQKGEKIPRCLPVCGKPVNPVEQRQRIIGGQKAKMGNFPWQVFTNIHGRGGGALLGDRWILTAAHTLYPKEHEAQSNASLDVFLGHTNVEELMKLGNHPIRRVSVHPDYRQDESYNFEGDIALLELENSVTLGPNLLPICLPDNDTFYDLGLMGYVSGFGVMEEKIAHDLRFVRLPVANPQACENWLRGKNRMDVFSQNMFCAGHPSLKQDACQGDSGGVFAVRDPNTDRWVATGIVSWGIGCSRGYGFYTKVLNYVDWIKKEMEEED
B4: recombinant protease MASP3 (protein)
chain: HTVELNNMFGQIQSPGYPDSYPSDSEVTWNITVPDGFRIKLYFMHFNLESSYLCEYDYVKVETEDQVLATFCGRETTDTEQTPGQEVVLSPGSFMSITFRSDFSNEERFTGFDAHYMAVDVDECKEREDEELSCDHYCHNYIGGYYCSCRFGYILHTDNRTCRVECSDNLFTQRTGVITSPDFPNPYPKSSECLYTIELEEGFMVNLQFEDIFDIEDHPEVPCPYDYIKIKVGPKVLGPFCGEKAPEPISTQSHSVLILFHSDNSGENRGWRLSYRAAGNECPELQPPVHGKIEPSQAKYFFKDQVLVSCDTGYKVLKDNVEMDTFQIECLKDGTWSNKIPTCKIVDCRAPGELEHGLITFSTRNNLTTYKSEIKYSCQEPYYKMLNNNTGIYTCSAQGVWMNKVLGRSLPTCLPECGQPSRSLPSLVKRIIGGRNAEPGLFPWQALIVVEDTSRVPNDKWFGSGALLSASWILTAAHVLRSQRRDTTVIPVSKEHVTVYLGLHDVRDKSGAVNSSAARVVLHPDFNIQNYNHDIALVQLQEPVPLGPHVMPVCLPRLEPEGPAPHMLGLVAGWGISNPNVTVDEIISSGTRTLSDVLQYVKLPVVPHAECKTSYESRSGNYSVTENMFCAGYYEGGKDTCLGDSGGAFVIFDDLSQRWVVQGLVSWGGPEECGSKQVYGVYTKVSNYVDWVWEQMGLPQSVVEPQVER

Target: immature human CFD (proCFD)

Protein | processing of proCFD (IEF immunoblot after overnight incubation at 37 C) | degree of processing of the proCFD N terminus (targeted mass spectrometry, convertase activity test)
B1 | the convertase C1S hardly shows effects (lane 4, like MASP1) | 
B2 | ProCFD treated with MASP1 was not strongly processed (lane 1) | 
B3 | The treatment with C1R resulted in a partial processing/activation (lane 3) | 
B4 | proCFD treated with MASP3 was almost completely converted into active CFD and even shows further processed forms (lane 2) | Only the proteases from the MASP family, i.e. L. MASP3 show a successful activation of proCFD
